Results as given in patent US10905748B2, “Ovotransferrin treatment for the reproductive tract” (Vets Plus, Inc., priority 2018, dated 2021).

Experiments:
[1] = tested on: metritis causing bacteria; test: Agar well zone of inhibition on bacteria cultured from metritis discharge; format: cell-based, bacteria from the discharge of a cow diagnosed with metritis; settings: 24 hour diffusion at 37° C.
Procedure: A cow that was diagnosed with metritis, as evidenced by elevated temperature, elevated total leukocyte count, raised tails, and foul smelling discharge, had the discharge cultured onto blood agar plates. Bacteria colonies with different morphology from the metritis discharge that grew were selected and placed into 20 ml liquid nutrient broth in culture tubes at a defined amount and incubated overnight at 37° C. The bacteria in the liquid nutrient broth was then used to create agar plates by mixing 1 ml of nutrient broth containing bacteria with 15 ml of warm agar and poured into petri dishes and incubated for 24-48 hrs. at 37° C. Then, holes were punched into the agar and a dose response of previously purified ovotransferrin at 0%, 10% and 25% w/v in sterile water was placed in the holes. The plates were allowed to diffuse for 24 hour at 37° C. to check for zone of inhibition. Zones of inhibition were visualized by clearings in the agar where no bacteria grew. […] This is consistent with ovotransferrin in killing the bacteria that cause metritis. It was concluded that ovotransferrin of the invention is able to inhibit growth of the metritis causing bacteria in a dose dependent manner.

[2] = tested on: Cows with clinical endometritis; test: Intrauterine infusion of ovotransferrin solution in cows with clinical endometritis; format: in vivo, cow
Description: (§1) Cows with clinical endometritis (n=4) were identified based on the clinical signs, rectal temperature, score of mucus characteristics, total polymorph numbers, pH of uterine discharge, uterine swab analysis, and bacterial culture, along with healthy cows (control, n=4). Two hundred ml of a 5% ovotransferrin solution of the invention were infused intrauterine with a special pipette attached to a pump in the treatment group. Seven days later, all the above parameters were reexamined. Total number of polymorph in uterine discharge was counted using a hemocytometer, stained with Giemsa and Gram stain.
as §1, with “(n=3)” for “(n=4)”, “n=3.” for “n=4).”, “reexamined.” for “reexamined. Total number of polymorph in uterine discharge was counted using a hemocytometer, stained with Giemsa and Gram stain.”
as §1, with “reexamined. Mucus score was 6 times higher” for “reexamined. Total number of polymorph”, “in metritis affected cows than control values. […] This indicates the invention” for “in uterine discharge”, “was efficacious for treatment metritis in cows.” for “was counted using a hemocytometer, stained with Giemsa and Gram stain.”
as §1, with “reexamined.” for “reexamined. Total number of polymorph in uterine discharge was counted using a hemocytometer, stained with Giemsa and Gram stain.”

[3] = tested on: infectious metritis in cows; test: Clinical trial of ovotransferrin bolus to prevent infectious metritis in postpartum cows; format: in vivo, cow; settings: examined after 30 days
Procedure: (§2) A clinical trial was conducted to examine efficacy of the invention to prevent infectious metritis in cows. 10 gram of purified Ovotransferrin was mixed with 10 grams of binding agent to create a 20 gram total bolus with dimensions of 2 cm wide and 6 cm long. For N=5 cows from a herd known to have the standard metritis rate were selected that were 3 hours postpartum. Two boluses were inserted into the uterus and allowed to dissolve. The cows were monitor daily for any obvious signs of metritis. After 30 days, the cows were examined in detail for clinical signs of metritis. […] It would be expected that at least one of the cows of this group would have had metritis 10-12 days without the use of the invention.
as §2, with “A single bolus was” for “Two boluses were”
as §2, with “cows. 2.5” for “cows. 10”, “with 17.5” for “with 10”, “For N=7” for “For N=5”
A clinical trial was conducted to examine efficacy of the invention to prevent infectious metritis in cows. 2.5 gram of purified Ovotransferrin was mixed with 17.5 grams of binding agent to create a 20 gram total bolus with dimensions of 2 cm wide and 6 cm long. For N=7 cows from a herd known to have the standard metritis rate were selected that were 3 hours postpartum. A single bolus was inserted into the uterus and allowed to dissolve. The cows were monitor daily for any obvious signs of metritis. After 30 days, the cows were examined in detail for clinical signs of metritis. […]

B1: ovotransferrin (protein, UniProt P02789 20-705, looked up)
Ovotransferrin: APPKSVIRWCTISSPEEKKCNNLRDLTQQERISLTCVQKATYLDCIKAIANNEADAISLDGGQAFEAGLAPYKLKPIAAEVYEHTEGSTTSYYAVAVVKKGTEFTVNDLQGKTSCHTGLGRSAGWNIPIGTLLHRGAIEWEGIESGSVEQAVAKFFSASCVPGATIEQKLCRQCKGDPKTKCARNAPYSGYSGAFHCLKDGKGDVAFVKHTTVNENAPDQKDEYELLCLDGSRQPVDNYKTCNWARVAAHAVVARDDNKVEDIWSFLSKAQSDFGVDTKSDFHLFGPPGKKDPVLKDLLFKDSAIMLKRVPSLMDSQLYLGFEYYSAIQSMRKDQLTPSPRENRIQWCAVGKDEKSKCDRWSVVSNGDVECTVVDETKDCIIKIMKGEADAVALDGGLVYTAGVCGLVPVMAERYDDESQCSKTDERPASYFAVAVARKDSNVNWNNLKGKKSCHTAVGRTAGWVIPMGLIHNRTGTCNFDEYFSEGCAPGSPPNSRLCQLCQGSGGIPPEKCVASSHEKYFGYTGALRCLVEKGDVAFIQHSTVEENTGGKNKADWAKNLQMDDFELLCTDGRRANVMDYRECNLAEVPTHAVVVRPEKANKIRDLLERQEKRFGVNGSEKSKFMMFESQNKDLLFKDLTKCLFKVREGTTYKEFLGDKFYTVISSLKTCNPSDILQMCSFLEGK
notes: 12 to 13% of total egg white protein
zone of inhibition ([1]; 10% w/v ovotransferrin in sterile water in agar wells): a zone of inhibition was seen
zone of inhibition ([1]; 25% w/v ovotransferrin in sterile water in agar wells): a larger zone
Mean pH of uterine discharge ([2]; one week after intrauterine infusion of 200 ml 5% solution, 8.8 before treatment, healthy control 6.8, n=3, p<0.05, FIG. 2): 7.0
Rectal temperature ([2]; one week after intrauterine infusion of 200 ml 5% solution, >40° C. before treatment, n=4, FIG. 1): 38.5 °C
Mucus score ([2]; seven days after intrauterine infusion of 200 ml 5% solution, 6 times control before treatment, n=4, FIG. 3): statistically significant decrease
Total number of polymorph in uterine discharge ([2]; seven days after intrauterine infusion of 200 ml 5% solution, more than 70 times control before treatment, n=4, FIG. 4): statistically significantly (p<0.01) reduced (2 and 4 times higher, respectively, compared with control)
clinical signs of metritis ([3]; single bolus of 2.5 g ovotransferrin in uterus 3 hours postpartum, N=7): None of the cows had any signs of metritis
clinical signs of metritis ([3]; single bolus of 10 g ovotransferrin in uterus 3 hours postpartum, N=5): None of the cows had any signs of metritis
clinical signs of metritis ([3]; two boluses of 2.5 g ovotransferrin (5 grams) in uterus 3 hours postpartum, N=7): None of the cows had any signs of metritis
clinical signs of metritis ([3]; two boluses of 10 g ovotransferrin (20 grams) in uterus 3 hours postpartum, N=5): None of the cows had any signs of metritis
